In test [1] the target is SARS‐CoV‐2 WT spike trimer protein (SARS-CoV-2, UniProt P0DTC2). The test can be described thus: BLI. The settings on record: both partners purified.
Test [2] has as its target extracellular domain of SARS‐CoV‐2 (WT) spike (S‐ECD) for cryo-EM (SARS-CoV-2 WT, proline mutation at residue 986 | proline mutation at residue 987, N-linked glycans (Asn17, Asn122, Asn165 and others)). Description: cryo-EM structure. The settings on record: both partners purified.

B1: mAb 26434 (antibody, V domains shown)
VH: QVQLQQSGAEVKKPGASVKVSCKASGYTFSRYGISWVRQAPGQGLEWMGWISAYKGNTNYAQKFQGRVTMTTDTSTSTAYMELRSLRSDDTAVYYCARSPPDFLGWFDPWGQGTLVTVSS
VL: LPVLTQPPSVSVSPGQTASITCSGDKLGDKFTCWYQQKPGQSPVQVIYQDTHRPSGIPERFSGSNSGNTATLTISGTQAVDEADYYCQAWDSSTVIFGGGTKLTVL
In turn, B1 yielded a Kd in test [1] of 670 nM.

B2: mAb 3711 (antibody, V domains shown)
VH: EVQLVESGGGLVKPGRSLRLSCAASGFTFSDYYMSWIRQAPGKGLEWVSYISSSGSTIYYADSVRGRFTISRDNAKNSLYLQMNTLRAEDTAVYYCARGGWELRSLAGGYYGMDVWGQGTTVTVSS
VL: DIVMTQTPFTLSASVGDRVTITCRASQGIRNDLGWYQQKPGKAPKCLIYAASSLLSGVPSRFSGSGSGTEFTLTISSLQPEDFATYYCLQHNSYPWTFGQGTKLEIK
For B2, the “stoichiometry N” value in test [2] was found to be 3 Fabs per spike trimer.

Broadly, the Kd is the concentration at which binding is half-saturated. Read a high Kd as lower affinity. As a reminder, the stoichiometry N is the number of molecules, sites or subunits per partner or assembly.

The values are drawn from publication PMC11604724 (MedComm, 2024).
